These results are taken from US20170267986A1, “GENERATION OF MANNOSE-6-PHOSPHATE CONTAINING RECOMBINANT ALPHA-N-ACETYL GLUCOSAMINIDASE” (SHIRE HUMAN GENETIC THERAPIES, INC., priority 2014, published 2017).

In data set [1] the target is T1, Naglu-Kif, a high-mannose-containing recombinant human Naglu (before sGNPT modification).
T1 chain: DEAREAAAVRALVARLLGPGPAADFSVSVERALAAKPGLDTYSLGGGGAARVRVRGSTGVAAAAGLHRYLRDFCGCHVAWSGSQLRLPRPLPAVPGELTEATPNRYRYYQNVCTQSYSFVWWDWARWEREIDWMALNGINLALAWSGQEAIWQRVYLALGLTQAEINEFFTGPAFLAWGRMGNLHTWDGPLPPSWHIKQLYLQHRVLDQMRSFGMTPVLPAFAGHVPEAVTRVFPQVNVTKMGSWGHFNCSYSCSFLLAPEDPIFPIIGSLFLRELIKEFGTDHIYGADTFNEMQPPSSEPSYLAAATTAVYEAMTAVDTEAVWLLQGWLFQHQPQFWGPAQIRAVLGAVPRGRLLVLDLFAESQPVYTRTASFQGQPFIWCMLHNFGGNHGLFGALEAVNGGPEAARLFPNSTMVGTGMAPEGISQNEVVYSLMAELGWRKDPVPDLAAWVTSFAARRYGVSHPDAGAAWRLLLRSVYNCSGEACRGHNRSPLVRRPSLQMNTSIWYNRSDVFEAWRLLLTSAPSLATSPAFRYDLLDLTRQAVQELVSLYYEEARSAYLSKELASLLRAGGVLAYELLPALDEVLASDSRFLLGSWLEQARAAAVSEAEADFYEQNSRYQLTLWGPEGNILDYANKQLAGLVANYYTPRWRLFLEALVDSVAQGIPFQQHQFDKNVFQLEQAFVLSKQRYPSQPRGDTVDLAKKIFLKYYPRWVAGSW

Data set [2] deals with T2, Recombinant human Naglu (rhNaglu).
T2 chain: T1 chain

In the next data set the target is T3, rhNaglu (Homo sapiens, UniProt P54802).
T3 construct: The N-terminal 23 amino acids are cleaved as the precursor protein enters the endoplasmic reticulum, resulting in a mature form; made in house; host or cells: human fibrosarcoma HT1080 cell clone over-expressing rhNaglu
T3 sequence (P54802 24-743): T1 chain
Briefly: Naglu substrate analysis: hydrolysis of UDP-sugars by rhNaglu, PAD-HPLC. In kind it is biochemical. To be noted: 0.8 mM UDP-GlcNAc, 37° C., 1 hour. The procedure:
Recombinant human Naglu was co-incubated with uridine diphosphate N-acetylglucosamine (UDP-GlcNAc) or uridine diphosphate N-acetyl galactosamine (UDP-GalNAc). UDP-GlcNAc, GlcNAc (N-acetylglucosamine) and UDP-GalNAc were detected using PAD-HPLC (Pulsed Amperometric Detection-High Pressure Liquid Chromatography) that was modified after Chavaroche et al. 2011.
Recombinant human Naglu was dialyzed into Tris buffer (40 mM Tris pH 7.15, 100 mM NaCl, 4 mM MgCl2, and 4 mM MnCl2) and concentrated with VivaSpin® sample concentrators having a 30 kDa cut-off (Viva Products, Inc., Littleton, Mass.). […]
Samples were then subjected to centrifugation at 10,000 rpm, and the resulting supernatants were loaded on PA10 columns and detected by PAD-HPLC (Pulsed Amperometric Detection-High Pressure Liquid Chromatography) (Dionex ICS-3000 Ion Chromatography System (Thermo Fisher Scientific, Inc., Sunnyvale, Calif.)). […] The peak areas for the eluted UDP-GlcNAc were measured, and the reductions of the area under the curve (AUC) in response to increased concentrations of rhNaglu were determined (FIG. 1A). A new peak at 10.7 minutes was detected on the chromatograms of samples treated with concentrations of rhNaglu of 23.4 μg/ml and above. […] The peak areas for the eluted GlcNAc were measured, and the increases of the AUC in response to increased concentrations of rhNaglu were determined (FIG. 1B). […]

Another data set concerns the target T4, CI-M6PR (Homo sapiens, UniProt P11717).
T4 construct: the secreted sCI-M6PR was purified from the tissue culture medium; made in house
Briefly: Plate based sCI-M6PR binding assay (ELISA). To be noted: treated with sGNPT under the same conditions as Naglu-Kif. The procedure: (1) Generation of sCI-M6PR (soluble CI-M6PR)—Full length M6PR was expressed in genetically modified tissue culture cells, and the secreted sCI-M6PR was purified from the tissue culture medium using an aminophenyl-M6P conjugated resin (Beljaars et al., 1999). N-terminal sequencing and LC/MS/MS analysis of the obtained protein confirmed the amino acid sequence of the sCI-M6PR, and MALDI analysis confirmed that its molecular mass was 279,492 Da.
100 μl of sCI-M6PR(2.5 μg/ml) in DPBS were coated on MaxiSorp® Nunc-Immuno flat-bottom 96-well plates (Thermo Fisher Scientific, Inc., Sunnyvale, Calif.). After incubation for 1 hour at 37° C., the plates was washed with ELISA wash buffer (0.1% Tween-20 in DPBS). sCI-M6PR coated wells were blocked with 300 μl ELISA blocking buffer (DPBS, 2% BSA, 0.05% Tween 20) at 37° C. for 1 hour. Appropriate dilutions of sGNPT-modified Naglu-Kif (and rhNaglu as control) were made in blocking buffer and added to the wells. After 1 hour incubation at 37° C., the plates were washed with ELISA wash buffer, and 100 μl of HRP-conjugated rabbit anti-Naglu polyclonal antibody #2957 diluted in blocking buffer were added. After 1 hour incubation at 37° C., the plates was washed again with ELISA wash buffer. The ELISA was developed using TMB peroxidase substrate solution (KPL, Inc., Gaithersburg, Mass.) by following the manufacturer's protocol.
sGNPT transfers the phospho-GlcNAc group from UDP-GlcNAc to mannose sugar, and the resulting mannose-6-phosphate-GlcNAc is called the Capped-M6P. During the normal intracellular glycosylation process, the decapping enzyme (N-acetylglucosamine 1-phosphodiester α-N-acetyglucosaminidase) removes the GlcNAc from the Capped-M6P, to generate M6P. But without decapping, the Capped-M6P can also bind to CI-M6PR. Capped-M6P binds to domain 5 of CI-M6PR rather than to domain 3 or 9, as M6P does (Bohnsack et al. 2009). The amount of Capped-M6P on Naglu-Kif can be indirectly evaluated using a CI-M6PR plate binding assay. In this binding assay the affinity with which Naglu-Kif bound to CI-M6PR increased in proportion to the amount of sGNPT used (35 μg, 70 μg and 140 (corresponding to about 4.2 μM) (green, red and empty circle in FIG. 8, respectively)) to modify Naglu-Kif and thus the extent of Capped-M6P found on Naglu-Kif (FIG. 8). […] These binding reactions were repeated in two different buffer systems, i.e., in a sodium acetate buffer (40 mM NaAc pH 6.5, 10 mM MnCl2, 10 mM MgCl2) and in a Tris buffer (50 mM Tris pH 7.4, 10 mM MnCl2, 10 mM MgCl2), which gave similar results. Contrary to Naglu-Kif, rhNaglu was not phosphorylated by sGNPT under the same conditions due to the lack of high-mannose glycans.

B1: Soluble human N-acetylglucosamine-1-phosphotransferase (sGNPT), HPC4 tagged (protein)
chain: DEDQVDPRLIDGKWSRDQYHVLFDSYRDNIAGKSFQNRLCLPMPIDVVYTWVNGTDLELLKELQQVREQMEEEQKAMREILGKNTTEPTKKSEKQLECLLTHCIKVPMLVLDPALPANITLKDLPSLYPSFHSASDIFNVAKPKNPSTNVSVVVFDSTKDVEDAHSGLLKGNSRQTVWRGYLTTDKEVPGLVLMQDLAFLSGFPPTFKETNQLKTKLPENLSSKVKLLQLYSEASVALLKLNNPKDFQELNKQTKKNMTIDGKELTISPAYLLWDLSAISQSKQDEDISASRFEDNEELRYSLRSIERHAPWVRNIFIVTNGQIPSWLNLDNPRVTIVTHQDVFRNLSHLPTFSSPAIESHIHRIEGLSQKFIYLNDDVMFGKDVWPDDFYSHSKGQKVYLTWPVPNCAEGCPGSWIKDGYCDKACNNSACDWDGGDCSGNSGGSRYIAGGGGTGSIGVGQPWQFGGGINSVSYCNQGCANSWLADKFCDQACNVLSCGFDAGDCGQDHFHELYKVILLPNQTHYIIPKGECLPYFSFAEVAKRGVEGAYSDNPIIRHASIANKWKTIHLIMHSGMNATTIHFNLTFQNTNDEEFKMQITVEVDTREGPKLNSTAQKGYENLVSPITLLPEAEILFEDIPKEKRFPKFKRHDVNSTRRAQEEVKIPLVNISLLPKDAQLSLNTLDLQLEHGDITLKGYNLSKSALLRSFLMNSQHAKIKNQAIITDETNDSLVAPQEKQVHKSILPNSLGVSERLQRLTFPAVSVKVNGHDQGQNPPLDLETTARFRVETHTQKTIGGNVTKEKPPSLIVPLESQMTKEKKITGKEKENSRMEENAENHIGVTEVLLGRKLQHYTDSYLGFLPWEKKKYFQDLLDEEESLKTQLAYFTDSKNRARYKRDTFADSLRYVNKILNSKFGFTSRKVPAHMPHMIDRIVMQELQDMFPEEFDKTSFHKVRHSEDMQFAFSYFYYLMSAVQPLNISQVFDEVDTDQSGVLSDREIRTLATRIHELPLSLQDLTGLEHMLINCSKMLPADITQLNNIPPTQESYYDPNLPPVTKSLVTNCKPVTDKIHKAYKDKNKYRFEIMGEEEIAFKMIRTNVSHVVGQLDDIRKNPRKFVCLNDNIDHNHKDAQTVKAVLRDFYESMFPIPSQFELPREYRNRFLHMHELQEWRAYRDKL
Take B1: in data set [1], the pmol M6P/pmol Naglu Kif (M6P monosaccharide quantitation by PAD-HPLC after in vitro phosphorylation; +70 ug GNPT, 50 mM Tris pH 7.4, 10 mM MnCl2, 10 mM MgCl2) (pmol M6P/pmol Naglu Kif) is 1.45; the pmol M6P/pmol Naglu Kif (M6P monosaccharide quantitation by PAD-HPLC after in vitro phosphorylation; +70 ug GNPT, 50 mM sodium acetate pH 6.5, 20 mM MnCl2) (pmol M6P/pmol Naglu Kif) is 0.12; the pmol M6P/pmol Naglu Kif (M6P monosaccharide quantitation by PAD-HPLC after in vitro phosphorylation; +140 ug GNPT, 50 mM sodium acetate pH 6.5, 20 mM MnCl2) (pmol M6P/pmol Naglu Kif) came to 0.64. Also, the “in vitro phosphorylation by sGNPT” value in data set [2] is given as “rhNaglu was not phosphorylated by sGNPT under the same conditions due to the lack of high-mannose glycans”.

B2: rhNaglu: recombinant human alpha-N-acetyl-glucosaminidase purified from human fibrosarcoma HT1080 cells engineered to over-express it (protein)
chain: T1 chain
For B2, in the data set with rhNaglu, the “minimum rhNaglu concentration required for detection of hydrolysis of UDP-GlcNAc” value worked out at 23.4 µg/mL. Also, in the data set with CI-M6PR, the “binding to CI-M6PR” value was “did not bind”.
